Measured values reported in paper PMC10773984.

What was measured:
[1] = target: p53-like peptide W23A, displayed on E. coli; test: flow cytometry on cells
[2] = target: p53-like peptide F19A, displayed on E. coli; test: flow cytometry on cells

- relative Kd (against the wild type p53-like peptide) [1]: > 10000
- relative Kd (against the wild type p53-like peptide) [2]: > 10000
Substance: Mdm2-GST (from UniProt Q00987 1-491) (natural protein)
